Columns and labels:
[1] = test system: Smn knock-down NSC-34 motor neuronal cells (sh_Smn_519-FM5S clone); assay: Neuritogenesis and neurite outgrowth (morphometric analysis, β-tubulin III immunostaining) in Smn knock-down motor neuronal cells; format: cell-based, mouse
Experimental: (§1) The psiRNA-hH1neo G2 (InvivoGen) and sh_Smn_519 (Shafey et al. Hypomorphic Smn knockdown C2C12 myoblasts reveal intrinsic defects in myoblast fusion and myotube morphology, 2005, Exp Cell Res 311:49-61) constructs were transfected into the NSC-34 cells using FuGENE HD Transfection Reagent (Promega) according to the manufacturer's instructions. Forty-eight hours after the transfection, cells were subject to drug selection with 1 mg/ml G418 (Sigma-Aldrich) to obtain stably transfected cell lines. Two weeks after the transfection, single clones were picked and expanded in a DMEM/10% FBS/G418-based medium to obtain the psiRNA and sh_Smn_519 NSC-34 clonal cell lines, respectively. To induce differentiation, clones were maintained in culture with differentiation medium (DMed) (1:1 DMEM plus Ham's F12, 1% FBS, 1% penicillin/streptomycin, and 1% modified Eagle's medium nonessential amino acids; see 48).
Twenty-four hours after plating, psiRNA and sh_Smn_519 NSC-34 stable clones were treated with various concentrations of transducible fusion protein/peptide (3 hours). Protein/peptide in excess were subsequently removed and cells were maintained in culture in DMed for 24 and 48 hours. Cells were then fixed and stained, as described below. Neurite outgrowth and/or cell death were subsequently analyzed (see "Immunocytochemistry") .
For immunostaining, cells were incubated for 1 hour with a blocking/permeabilizing solution (5% Serum, 0.1% Triton X-100, in PBS) at room temperature. To evaluated neurite outgrowth, cells were immunostained using a mouse antibody to β-tubulin isotype III (Sigma-Aldrich). Neurite length was measured according to a protocol previously established in our laboratory using ImageJ software (National Institutes of Health) and NeuronJ plug-in. Briefly, only processes as long as twofold the average cell body dimension were considered neurites and measured. […] A total of about 100 cells per group were analyzed. […]

[2] = test system: Smn knock-down NSC-34 motor neuronal cells (sh_Smn_519-FM5S clone); assay: Apoptotic cell death (cells with condensed nuclei, Hoechst 33342) in Smn knock-down motor neuronal cells; format: cell-based, mouse; conditions: 48 hours after the switch to DMed
Experimental: as §1, with “To induce differentiation, clones were maintained in culture with differentiation medium (DMed) (1:1 DMEM plus Ham's F12, 1% FBS, 1% penicillin/streptomycin, and 1% modified Eagle's medium nonessential amino acids; see 48).” left out
Twenty-four hours after plating, psiRNA and sh_Smn_519 NSC-34 stable clones were treated with various concentrations of transducible fusion protein/peptide (3 hours). […] Neurite outgrowth and/or cell death were subsequently analyzed (see "Immunocytochemistry") .
Cells were rinsed in phosphate-buffered saline (PBS) and fixed in 4% PFA for 20 min. […] The number of cells showing condensed nuclei was counted as previously described.
Subsequently, the neuroprotective activity of the two peptides was evaluated. […] Forty-height hours after the switch to DMed, the impact of the two TAT48-57-fusion peptides towards cell death was determined in terms of reduction in the number of cells with condensed nuclei. […]

B1: TAT48-57-SMN^235-294: fusion peptide of carrier peptide TAT48-57 (SEQ ID NO: 1) and SMN^235-294 carboxy-terminal domain (SEQ ID NO: 29) as active peptide portion (peptide, listed as Homo sapiens)
chain: GRKKRRQRRRPFPSGPPIIPPPPPICPDSLDDADALGSMLISWYMSGYHTGYYMGFRQNQKEGRCSHSLN
modifications: HIV-1; Fragment of the full-length human SMN protein, i.e. the SMN235-294 carboxy-terminal domain
diminished the number of sh_Smn_519-FM5S cells without neurites ([1]; 10 nM, versus untreated sh_SMN_519-FM5S cells, 24 hours after the switch to DMed): ~40% | concentration with significant effect on number of cells without neurites and mean length of the longest neurite per cell ([1]; sh_Smn_519-FM5S clone, 3 hours pre-incubation, then differentiating conditions (DMed)): above 10 nM | increased the mean length of the longest neurite per cell ([1]; sh_Smn_519-FM5S clone, apparently 10 nM, versus untreated cells, 24 hours after the switch to DMed): 30% | diminished the number of cells with condensed nuclei ([2]; 100 nM, sh_Smn_519-FM5S cells, versus untreated cells): ~45% | concentrations significantly protective towards apoptotic cell death ([2]; sh_SMN_519-FM5S cells): 1 to 100 nM

— patent publication EP3573716B1, “BIOLOGICALLY ACTIVE FUSION PEPTIDE FOR USE IN THE TREATMENT OF SPINAL MUSCULAR ATROPHY (SMA)” (Istituti Clinici Scientifici Maugeri Spa Società Benefit, priority 2017, dated 2026)
